Sequences and labels used below:
B1: suPAR_DB02_A08 (scFv, V domains shown)
VH: QVQLVQSGAEVKKPGASVKVSCKASGYTFTTYYMHWVRQAPGQGLEWMGWIDPENGNTIYAQKFQGRVTMTRDTSTSTVYMELSSLRSEDTAVYYCARGYDVDWFVYWGQGTLVTVSS
VL: DIQMTQSPSSLSASVGDRVTITCSARSSVSYMYWYQQKPGKAPKLLIYRTSNLASGVPSRFSGSGSGTDFTLTISSLQPEDFATYYCQQYHSYPPTFGGGTKVEIK
notes: Screened as scFv
B2: suPAR_DB01_H08 (scFv, V domains shown)
VH: B1 VH with Y27F, T28N, F29I, T30K, T31D, M34I, E54N, N55G, N57G, I59Q
VL: B1 VL with S24R, R26S, A54Q
notes: Screened as scFv
B3: suPAR_DB02_B07 (scFv, V domains shown)
VH: B1 VH with Y27H, T30S, T31S
VL: B1 VL with S27Q, V29I
notes: Screened as scFv
B4: suPAR_DB02_B10 (scFv, V domains shown)
VH: B1 VH with T31N, I59S, A61D
VL: B1 VL with S24R, S27Q
notes: Screened as scFv
B5: suPAR_DB02_B03 (scFv, V domains shown)
VH: B1 VH with T30I, T31G, Y32N, M34I, P53H, N57S, A61D, Y100S
VL: B1 VL
notes: Screened as scFv
B6: suPAR_DB02_B06 (scFv, V domains shown)
VH: B1 VH with Y27D, T31S, P53H, N55G, N57S, K63Q
VL: B1 VL
notes: Screened as scFv
B7: suPAR_DB02_B09 (scFv, V domains shown)
VH: B1 VH with T31G, M34V, P53H, E54S, A61D, R98S
VL: B1 VL
notes: Screened as scFv
B8: suPAR_DB02_A12 (scFv, V domains shown)
VH: B1 VH with T31N, P53H, N57S, V102M
VL: B1 VL
notes: Screened as scFv
B9: suPAR_DB02_A10 (scFv, V domains shown)
VH: B1 VH with T31G, Y32N, P53H, A61D, Y100S
VL: B1 VL
notes: Screened as scFv
B10: suPAR_DB02_C02 (scFv, V domains shown)
VH: B1 VH with T30K, T31S, P53H, A61D, R98S
VL: B1 VL
notes: Screened as scFv
B11: suPAR_DB02_B01 (scFv, V domains shown)
VH: B1 VH with T31G, Y32H, M34V, P53H, A61D
VL: B1 VL with S27Q
notes: Screened as scFv
B12: suPAR_DB02_B08 (scFv, V domains shown)
VH: B1 VH with T28S, T31N, P53H, N57S, I59S, A61D
VL: B1 VL
notes: Screened as scFv
B13: suPAR_DB02_C05 (scFv, V domains shown)
VH: B1 VH with Y27G, T30S, T31S, P53H, A61D
VL: B1 VL
notes: Screened as scFv
B14: suPAR_DB02_C01 (scFv, V domains shown)
VH: B1 VH with T31G, N57S, A61D
VL: B1 VL with S24R, S27Q
notes: Screened as scFv
B15: suPAR_DB02_A11 (scFv, V domains shown)
VH: B1 VH with Y27G, T30S, T31S, E54S, A61D
VL: B1 VL with S27Q
notes: Screened as scFv
B16: suPAR_DB02_B04 (scFv, V domains shown)
VH: B1 VH with T31G, Y32H, P53H, A61D
VL: B1 VL
notes: Screened as scFv
B17: suPAR_DB02_A09 (scFv, V domains shown)
VH: B1 VH with T31N, N55G, N57S, A61D
VL: B1 VL with S27Q, V29I
notes: Screened as scFv
B18: suPAR_DB02_C04 (scFv, V domains shown)
VH: QVQLVQSGAEVKKPGASVKVSCKASGFNIKDYYIHWVRQAPGQGLEWMGWIDHEGGSTSYDQKFQGRVTMTRDTSTSTVYMELSSLRSEDTAVYYCARGYDVDWFVYWGQGTLVTVSS
VL: B1 VL
notes: Screened as scFv
B19: suPAR_DB02_B05 (scFv, V domains shown)
VH: B1 VH with T31S, P53H, I59S
VL: B1 VL with S24R, S27Q
notes: Screened as scFv
B20: suPAR_DB05_B12 (scFv, V domains shown)
VH: B1 VH with T31N
VL: B1 VL with S27Q
notes: Screened as scFv
B21: suPAR_DB04_H03 (scFv, V domains shown)
VH: B1 VH with T31G, Y32N, M34L, P53H, E54S, N57S, A61D, Y100S
VL: B1 VL with R26S
notes: Screened as scFv
B22: suPAR_DB04_H09 (scFv, V domains shown)
VH: B1 VH with Y27G, T30S, T31G, M48V, D52T, E54D, N55S, N57A, I59A
VL: B1 VL with S27Q
notes: Screened as scFv
B23: suPAR_DB04_H05 (scFv, V domains shown)
VH: B1 VH with Y27H, F29L, T30N, T31S, N55G
VL: B1 VL
notes: Screened as scFv
B24: suPAR_DB04_H06 (scFv, V domains shown)
VH: B1 VH with T31N, M34V, P53H, I59S
VL: B1 VL with A54Q
notes: Screened as scFv
B25: suPAR_DB04_H08 (scFv, V domains shown)
VH: B1 VH with T30S, T31D, M34I, D52S, E54K, N55S, N57V, I59N
VL: B1 VL with R26S, S27Q
notes: Screened as scFv
B26: suPAR_DB04_H10 (scFv, V domains shown)
VH: B1 VH with T31S, D52S, E54D, N55S, N57G, I59N
VL: B1 VL with S24R
notes: Screened as scFv
B27: suPAR_DB04_H07 (scFv, V domains shown)
VH: B1 VH with T31S, P53H, I59S, A61D
VL: B1 VL with S24R
notes: Screened as scFv

Where a chain is given by its changes, count along the chain named.

In one assay the target is T1, human soluble urokinase plasminogen activator receptor (hsuPAR) (human, UniProt Q03405 23-303, limits assumed).
T1 construct: also called human suPAR; rhuPAR-His
T1 sequence (Q03405 23-303 limits assumed): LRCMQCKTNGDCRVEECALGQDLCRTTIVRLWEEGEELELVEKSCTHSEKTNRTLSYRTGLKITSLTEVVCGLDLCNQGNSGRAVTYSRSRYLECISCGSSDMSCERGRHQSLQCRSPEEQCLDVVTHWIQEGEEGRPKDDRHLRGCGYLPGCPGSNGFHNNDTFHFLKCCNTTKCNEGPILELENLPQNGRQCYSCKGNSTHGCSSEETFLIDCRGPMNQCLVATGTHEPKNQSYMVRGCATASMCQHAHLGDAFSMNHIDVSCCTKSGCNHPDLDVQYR
The assay is described as follows: BLI (Octet) off-rate screen of scFv. Background: Biolayer interferometry detects binding as a change in optical thickness at a sensor tip.
A word on the koff: it is the rate constant with which the complex falls apart. Take B1: the koff turned out to be 0.00363 s⁻¹.

In turn, B2 returned a koff of 0.00281 s⁻¹.

Consider B3, for which the koff worked out at 0.00447 s⁻¹. This koff lies about 1.6-fold higher than the previous one.

For the molecule B4, the koff came to 0.00189 s⁻¹.

For B5, the koff stood at 0.00088 s⁻¹. This koff lies about 2.1-fold lower than the previous one.

For the molecule B6, the koff came to 0.00353 s⁻¹. This koff lies about 4-fold higher than the previous one.

B7 registered a koff of 0.00422 s⁻¹.

With B8, the koff was determined as 0.0017 s⁻¹.

In turn, B9 registered a koff of 0.00319 s⁻¹.

The molecule B10 registered a koff of 0.00429 s⁻¹.

With B11, the koff was determined as 0.00253 s⁻¹.

B12 gave a koff of 0.00155 s⁻¹.

Turning to B13, the off-rate (koff) is 0.00504 s⁻¹.

B14 registered a koff of 0.00465 s⁻¹. The koff values of the last two molecules are within 1.5-fold of each other.

The molecule B15 gave a koff of 0.00447 s⁻¹.

B16 showed a koff of 0.00477 s⁻¹.

Molecule B17 came in with a koff of 0.00613 s⁻¹.

B18: the koff was determined as 0.00128 s⁻¹.

As for B19, the koff was 0.0041 s⁻¹. Against the preceding molecule, the koff is about 3.2-fold higher.

The next assay deals with T2, cynomolgus soluble urokinase plasminogen activator receptor (cynomolgus suPAR) (cynomolgus, UniProt Q9GK78 23-303, limits assumed).
T2 construct: also called cynomolgus uPAR; cynoPLAUR-His
T2 sequence (Q9GK78 23-303 limits assumed): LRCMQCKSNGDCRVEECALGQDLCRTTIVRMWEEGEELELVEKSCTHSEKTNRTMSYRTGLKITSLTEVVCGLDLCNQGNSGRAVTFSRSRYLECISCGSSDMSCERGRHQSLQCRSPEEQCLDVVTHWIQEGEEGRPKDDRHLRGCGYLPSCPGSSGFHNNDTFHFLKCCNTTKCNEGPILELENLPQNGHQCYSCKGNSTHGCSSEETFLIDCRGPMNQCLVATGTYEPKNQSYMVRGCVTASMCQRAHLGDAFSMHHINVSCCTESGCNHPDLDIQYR
The assay is described as follows: BLI (Octet) off-rate screen of scFv.
For B1, the koff is 7.98e-05 s⁻¹.

B2 had a koff of 0.00038 s⁻¹.

B3 displayed a koff of 8.12e-05 s⁻¹.

The molecule B4 displayed a koff of 0.000434 s⁻¹.

The molecule B5 yielded a koff of 0.000424 s⁻¹. The koff values of the last two molecules are within 1.5-fold of each other.

Molecule B6 had a koff of 0.000127 s⁻¹. Compared with the last molecule, the koff is about 3.3-fold lower.

In turn, B7 gave a koff of 0.000208 s⁻¹.

Molecule B8 came in with a koff of 2.26e-05 s⁻¹.

With B9, the koff came to 0.00024 s⁻¹. This koff is about 11-fold higher than that of the molecule before.

B10 had a koff of 3.58e-05 s⁻¹.

In turn, B11 had a koff of 0.000363 s⁻¹. Against the preceding molecule, the koff is about 10-fold higher.

B12 registered a koff of 8.61e-05 s⁻¹.

B13: the koff is 0.000285 s⁻¹. Compared with the last molecule, the koff is about 3.3-fold higher.

Molecule B14 registered a dissociation rate constant (koff) of 0.00025 s⁻¹.

B15: the koff worked out at 0.000232 s⁻¹.

Molecule B16 returned a koff of 0.000185 s⁻¹.

For B17, the koff is 0.000484 s⁻¹.

On to B18, for which the koff turned out to be 0.00132 s⁻¹.

For the molecule B19, the off-rate constant (koff) turned out to be 0.000199 s⁻¹.

In a further assay the target is T3, human soluble urokinase plasminogen activator receptor (suPAR) (human, UniProt Q03405 23-303, limits assumed).
T3 construct: Column head says only 'human'; also called hsuPAR; human suPAR
T3 sequence (Q03405 23-303 limits assumed): as the sequence (Q03405 23-303 limits assumed) above
The assay is described as follows: BLI (Octet) off-rate screen of scFv clones.
The molecule B20 returned a koff of 0.00472 s⁻¹.

For B21, the koff amounted to 0.00134 s⁻¹.

With B22, the koff is 0.00475 s⁻¹.

B23 had a koff of 0.00584 s⁻¹.

B24: the koff was found to be 0.00926 s⁻¹.

Regarding B25, the koff amounted to 0.0034 s⁻¹.

On to B26, for which the koff was 0.00354 s⁻¹.

In the case of B27, the koff turned out to be 0.00511 s⁻¹. The koff values of the last two molecules are within 1.5-fold of each other.

In the next assay the target is T4, cynomolgus soluble urokinase plasminogen activator receptor (suPAR) (cynomolgus, UniProt Q9GK78 23-303, limits assumed).
T4 construct: Column head says only 'cynomologus'; also called cynomolgus suPAR; cynomolgus uPAR
T4 sequence (Q9GK78 23-303 limits assumed): as the sequence (Q9GK78 23-303 limits assumed) above
The assay is described as follows: BLI (Octet) off-rate screen of scFv clones.
B20 had a koff of 0.000383 s⁻¹.

The molecule B21 registered a koff of 0.000226 s⁻¹. This koff lies about 1.7-fold lower than the previous one.

For B22, the koff turned out to be 8.8e-05 s⁻¹.

For B23, the koff turned out to be 0.000182 s⁻¹.

B24: the off-rate (koff) stood at 0.000289 s⁻¹.

Regarding B25, the koff worked out at 5.42e-07 s⁻¹.

Turning to B26, the koff was 0.000323 s⁻¹.

The molecule B27 gave a koff of 0.000249 s⁻¹.
